Data taken from patent US20250346668A1 (GENOR BIOPHARMA, published 2025).
Changes are numbered by the printed parent chain. One block for each binder: values may come before it.

Tests used:
CD3 on Jurkat cells [1] = target: T1, CD3 on Jurkat cells (human); assay: FACS on Jurkat cells, Alexa 488 secondary antibody, MFI [c]
T1 construct: native, on the surface of Jurkat cells; The sheets print only 'Jurkat'; also called human CD3; TCR/CD3 complex on the human T cell line Jurkat
Description: (§1) Jurkat cells were amplificatorily cultured to 3×10⁶/ml in a T-175 cell culture flask, the culture medium was removed by centrifugation, and the cells were washed twice with PBS buffer (purchased from Invitrogen). After cell counting, the cells were diluted to 2×10⁶ cells/ml with PBS buffer, added with 1% BSA blocking solution, where the percentage was a mass percentage, incubated on ice for 30 minutes, and then washed twice with PBS buffer by centrifugation. The collected cells were suspended to 2×10⁶ cells/mL with FACS buffer (PBS+1% BSA, where the percentage was a mass percentage), and added to a 96-well FACS reaction plate at 100 μl per well, and samples of the purified CD3 antibodies obtained in Example 4 to be tested were added at 100 μl per well, and incubated at 4° C. for 2 hours. The plate was washed twice with FACS buffer by centrifugation, added with 100 μl per well of fluorescent (Alexa 488) labeled secondary antibody (purchased from Jackson), and incubated at 4° C. for 1 hour. After washing 3 times by centrifugation with FACS buffer, the cells were suspended with 100 μl of FACS buffer, and detected and analyzed using BD FACS LSRFortessa (purchased from BD). The results are shown in FIG. 5, where the IgG control is human IgG1 (hIgG).

[2] = target: T2, human CD3e/g antigen (ACRO, catalog number CDG-H52W5) (human, UniProt P07766 23-126; P09693 23-116); assay: SPR (Biacore 8K), antibody captured via anti-human Fc
T2 construct: Bought reagent used as the Biacore analyte; also called hCD3e/g
Description: The equilibrium dissociation constant of binding of CD3 antibodies to human CD3e/g antigen (purchased from ACRO, catalog number CDG-H52W5) was determined by kinetic binding method using Biacore 8K (GE) system. Through the capture method, the carboxylated dextran surface of CM5 chip was first activated with NHS (N-hydroxysuccinimide) and EDC (1-(3-dimethylaminopropyl)-3-ethylcarbodiimide hydrochloride), and then added with an anti-human IgG (Fc) antibody, the free amino group of which could form an amide bond with the activated carboxyl group, thereby being fixed on the chip surface. The anti-human IgG (Fc) antibody could bind to the Fc end of CD3 antibodies to capture the antibodies, and then a series of concentrations of antigen were added to obtain the binding and dissociation curves of antibody and antigen, and the corresponding kinetic constants were calculated by Biacore Evaluation software, as shown in the table below.

CD3 on Jurkat cells [3] = target: T1, CD3 on Jurkat cells; assay: FACS on Jurkat cells, Alexa 488 secondary antibody, MFI [a]
Description: as §1

- EC50 (read off the curve) (CD3 on Jurkat cells [1]): ~2 nM
- Kd [2]: 18.1 nM
- koff [2]: 0.00482 s⁻¹
- kon [2]: 266000 M⁻¹ s⁻¹
B1: hAb008-26 (antibody, V domains shown)
VH: QVQLVQSGAEVKKPGASVKVSCKASGYTFTDYTVNWVRQAPGQRLEWIGYINPFNSYTKYNQKFKDRATITADTSASTAYMELSSLRSEDTAVYFCANSVSTYWGQGTTVTVSS
VL: DVVMTQSPLSLPVTLGQPASISCKSSQSLLDSDGKTYLNWLQQRPGQSPRRLIQLVSKLNSGVPDRFSGSGSGTDFTLKISRVEAEDVGVFYCWQGTHFPRTFGGGTKLEIK
notes: Humanized; constant regions not specified

- Kd [2]: 16.8 nM
- koff [2]: 0.00669 s⁻¹
- kon [2]: 398000 M⁻¹ s⁻¹
- EC50 (read off the curve) (CD3 on Jurkat cells [3]): ~0.3 nM
B2: hAb001-21 (antibody, V domains shown)
VH: QVQLVQSGAEVKKPGASVKVSCKASGYSFTNYYMHWVRQAPGQRLEWIGWTYPGNNNIKYNEKFKGRVTITADTSASTAYMELSSLRSEDTAVYYCARDGYGYYFFDYWGQGTLVTVSS
VL: DIVMTQSPDSLAVSLGERATINCKSSQSLLNNRTRKNYLAWYQQKPGQPPKLLIYWASTRESGVPDRFSGSGSGTDFTLTISSLQAEDVAVYYCKQSYTLRTFGGGTKLEIK
notes: as for B1

- Kd [2]: 17.4 nM
- koff [2]: 0.00696 s⁻¹
- kon [2]: 401000 M⁻¹ s⁻¹
- EC50 (read off the curve) (CD3 on Jurkat cells [3]): ~0.3 nM
B3: hAb001-23 (antibody, V domains shown)
VH: B2 VH
VL: B2 VL with I21M, N22S
notes: as for B1

- Kd [2]: 17.4 nM
- koff [2]: 0.00673 s⁻¹
- kon [2]: 386000 M⁻¹ s⁻¹
- EC50 (read off the curve) (CD3 on Jurkat cells [3]): ~0.3 nM
B4: hAb001-26 (antibody, V domains shown)
VH: B2 VH with V68A
VL: B2 VL with S69T
notes: as for B1

- Kd [2]: 20.4 nM
- koff [2]: 0.00848 s⁻¹
- kon [2]: 416000 M⁻¹ s⁻¹
- EC50 (read off the curve) (CD3 on Jurkat cells [3]): ~0.3 nM
B5: hAb001-22 (antibody, V domains shown)
VH: B2 VH
VL: B2 VL with S69T
notes: as for B1

- Kd [2]: 20.4 nM
- koff [2]: 0.00745 s⁻¹
- kon [2]: 365000 M⁻¹ s⁻¹
- EC50 (read off the curve) (CD3 on Jurkat cells [3]): ~0.3 nM
B6: hAb001-28 (antibody, V domains shown)
VH: B2 VH with V68A
VL: B2 VL with I21M, N22S, S69T
notes: as for B1
